Drawing on US20120148607A1 (ARGEN X N V, published 2012), this text covers koff for 19 molecules.

The target in assay [1] is T1, recombinant dimeric c-Met (R&D systems, 358-MT/CF) (human, UniProt P08581 25-932).
T1 construct: Bought product; also called Fc-Met; recombinant c-Met
Nature of the assay: SPR, Fab-containing periplasmic extract over immobilised c-Met, dissociation 2 min. As to the method: HGF-competing clones were sequenced in the VH and the VL regions and divided into VH families based on the sequence of the CDR3 in the VH. These VH families were further tested with Surface Plasmon Resonance (SPR) for dissociation (koff) and recognition of SEMA-PSI or the extracellular domain of c-Met (Decoy). Between 1000-2000 RU of dimeric c-Met, SEMA-PSI or Decoy c-Met was immobilised on a VIA chip with amine coupling in sodium acetate buffer (pH 4.5). The Fab-containing peris were added with a flow rate of 30 μl/min and Fabs were considered to be binding if an increase of the RU was observed. The koff was measured for 2 minutes for each sample.
A general note: In SPR one partner is held on a chip, and binding of the other changes the refractive index at the surface.

For assay [2], the target named is T1, recombinant dimeric c-Met (R&D systems, …). Kind of assay: SPR, periplasmic Fab over Fc-Met (around 3000 RU) on CM5 chip. Here is the method: The clones were then tested for their dissociation constants by Surface Plasmon Resonance. Around 3000 RU of Fc-Met was immobilized directly onto a CM5 chip to obtain a clear binding profile from the periplasmic extracts. Clones with an improved off-rate were sent for sequencing.

T1 sequence (P08581 25-932 limits assumed): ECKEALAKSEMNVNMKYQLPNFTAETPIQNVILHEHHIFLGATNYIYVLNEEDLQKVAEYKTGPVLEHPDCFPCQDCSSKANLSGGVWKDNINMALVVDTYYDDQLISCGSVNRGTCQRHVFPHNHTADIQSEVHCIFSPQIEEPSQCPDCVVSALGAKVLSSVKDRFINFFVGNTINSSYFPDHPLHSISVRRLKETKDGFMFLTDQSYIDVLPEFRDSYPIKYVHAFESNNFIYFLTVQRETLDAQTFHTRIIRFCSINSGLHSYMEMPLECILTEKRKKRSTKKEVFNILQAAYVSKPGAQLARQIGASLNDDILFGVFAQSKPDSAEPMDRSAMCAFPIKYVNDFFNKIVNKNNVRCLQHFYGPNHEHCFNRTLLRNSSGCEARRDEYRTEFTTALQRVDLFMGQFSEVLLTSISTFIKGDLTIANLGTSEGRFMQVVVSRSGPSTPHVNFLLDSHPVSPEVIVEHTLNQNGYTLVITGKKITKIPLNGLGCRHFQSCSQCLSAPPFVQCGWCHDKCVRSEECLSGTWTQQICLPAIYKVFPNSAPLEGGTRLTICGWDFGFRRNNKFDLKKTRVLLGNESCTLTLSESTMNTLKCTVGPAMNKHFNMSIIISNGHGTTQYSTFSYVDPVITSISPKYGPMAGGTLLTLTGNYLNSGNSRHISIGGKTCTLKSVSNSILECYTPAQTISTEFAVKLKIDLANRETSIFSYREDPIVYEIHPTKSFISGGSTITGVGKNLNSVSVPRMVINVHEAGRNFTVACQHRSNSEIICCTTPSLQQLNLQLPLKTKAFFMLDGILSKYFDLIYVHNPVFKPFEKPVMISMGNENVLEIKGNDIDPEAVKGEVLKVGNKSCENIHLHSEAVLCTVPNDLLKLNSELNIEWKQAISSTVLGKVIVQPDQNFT

B1: 12G4 Fab (Fab, V domains shown)
VH: QLQLVESGGGMAQPGGSLKLSCAASGFTFDDYAMTWVRQAPGKGLEWLSTISWNDINTYYAESMKDRFTISRDNAKNTLYLQMNSLESEDTAVYYCAKRRDNYYGTSGEYDYWGQGTQVTVSS
VL: QSALTQPPSVSGTLGKTVTISCAGTSSDIGNYNYVSWYQQLPGTAPKLLIYEVNKRPSGIPDRFSGSKSGNTASLSISGLQSEDEADYYCASYRSSNNVVFGGGTKLTVL
notes: Fab from the phage display library, tested as periplasmic extract
Consider B1, for which the koff in assay [1] is 0.00013 s⁻¹.

B2: 13E6 Fab (Fab, V domains shown)
VH: QVQLQESGGDLVQPGGSLRLSCAASGFTFDDYVMNWVRQAPGKGLEWISAINWNGGSTYYAESMKGRFTISRDNAKNTLYLQMYSLQSDDTAVYYCVKDTVVSGNGYWGQGTQVTVSS
VL: QSVLTQPPSVSGTLGKTVTISCAGTSSDIGDYNYVSWYQQLPGTAPKLLIYDVNKRASGIPDRFSGSKSGNTASLSISGLQSEDEADYYCASYRSRNDYAFGGGTKLTVL
notes: as for B1
On to B2, for which the koff in assay [1] amounted to 0.00065 s⁻¹.

B3: 48A1 VL shuffled Fab (Fab, V domains shown)
VH: EVQLVQPGVELRNPGASVKVSCKASGYIFTMNSIDWVRQAPGQGLEWMGRIDPEDGGTKYAQKFQGRVTFTADTSTSTAYVELNSLRSEDTAVYYCARVDDYYLGYDYWGQGTQVTVSS
VL: EIVMTQSPSSVTASAGEKVTINCKSSQSVLWRSNQKNYLAWYQQRLGQSPRLLISWASIRESGVPDRFSGSGSTTDFTLTISSFQPEDAAVYYCQQGYSFPYTFGSGTRLEIK
notes: VL-shuffled Fab with the 38H10 heavy chain, periplasmic extract; The printed 48A1 VK reads the same as the 38H10 VK
On to B3, for which the off-rate constant (koff) in assay [2] turned out to be 0.00081 s⁻¹.

B4: 48A11 VL shuffled Fab (Fab, V domains shown)
VH: EVQLVQPGVELRNPGASVKVSCKASGYIFTMNSIDWVRQAPGQGLEWMGRIDPEDGGTKYAQKFQGRVTFTADTSTSTAYVELNSLRSEDTAVYYCARVDDYYLGYDYWGQGTQVTVSS
VL: DIVMTQTPSSVTAAVGEKVAINCKSSQSVLYNPNQKSYLAWYQQRPGQSPRLLIYWASTRESGVPDRFSGSGSTTDFALTISSFQPEDAAVYYCQQGYSFPYSFGSGTRLEIR
notes: VL-shuffled Fab with the 38H10 heavy chain, periplasmic extract
In the case of B4, the koff in assay [2] was determined as 0.00025 s⁻¹.

B5: 48D7 VL shuffled Fab (Fab, V domains shown)
VH: EVQLVQPGVELRNPGASVKVSCKASGYIFTMNSIDWVRQAPGQGLEWMGRIDPEDGGTKYAQKFQGRVTFTADTSTSTAYVELNSLRSEDTAVYYCARVDDYYLGYDYWGQGTQVTVSS
VL: DIVMTQTPASVTASAGEKVTINCKSSQSVLFSSNQKNYLAWYQQRVGQSPRLLIYWASTRESGVPDRFSGSGSTTDFTLTISNFQPEDAAVYYCQQGYSFPYSFGSGTRLEIR
notes: as for B4
B5: the koff in assay [2] was found to be 0.00025 s⁻¹.

B6: 48E2 VL shuffled Fab (Fab, V domains shown)
VH: EVQLVQPGVELRNPGASVKVSCKASGYIFTMNSIDWVRQAPGQGLEWMGRIDPEDGGTKYAQKFQGRVTFTADTSTSTAYVELNSLRSEDTAVYYCARVDDYYLGYDYWGQGTQVTVSS
VL: DVVMTQSPSSVTASAGEKVTINCKSSQSVLWSSNQKNYLAWYQQRVGQSPRLLIYWASTRESGVPDRFSGSGSTTDFTLTISNFQPEDAAVYYCQQGYSFPYSFGSGTRLEIR
notes: as for B4
With B6, in assay [2], the koff was found to be 0.00029 s⁻¹.

B7: 48E5 VL shuffled Fab (Fab, V domains shown)
VH: EVQLVQPGVELRNPGASVKVSCKASGYIFTMNSIDWVRQAPGQGLEWMGRIDPEDGGTKYAQKFQGRVTFTADTSTSTAYVELNSLRSEDTAVYYCARVDDYYLGYDYWGQGTQVTVSS
VL: DIQMTQSPSSVTASAGEKVTINCKSSQSVLYNSNQKNYLAWYQQRLGQSPRLLIYWASTRESGVPDRFSGSGSTTDFTLTISSFQPEDAAVYYCQQGWSFPYTFGSGTRLEIK
notes: as for B4
As for B7, in assay [2], the koff is 0.00019 s⁻¹.

B8: 48D2 VL shuffled Fab (Fab, V domains shown)
VH: EVQLVQPGVELRNPGASVKVSCKASGYIFTMNSIDWVRQAPGQGLEWMGRIDPEDGGTKYAQKFQGRVTFTADTSTSTAYVELNSLRSEDTAVYYCARVDDYYLGYDYWGQGTQVTVSS
VL: DIVMTQTPSSVTASAGEKVTINCKSSQSVLYNSNQKNYLAWYQQRLGQSPRLLIYWASTRESGVPDRFSGSGSTTDFTLTISSFQPEDAAVYYCQQGWSFPYTFGSGTRLEIK
notes: as for B4
As for B8, the koff in assay [2] came to 0.00013 s⁻¹.

B9: 48C8 VL shuffled Fab (Fab, V domains shown)
VH: EVQLVQPGVELRNPGASVKVSCKASGYIFTMNSIDWVRQAPGQGLEWMGRIDPEDGGTKYAQKFQGRVTFTADTSTSTAYVELNSLRSEDTAVYYCARVDDYYLGYDYWGQGTQVTVSS
VL: DIQLTQSPSSVTVSVGEKVTINCKSSQSVLYNSNQKNYLAWYQQRLGQSPRLLIYWASTRESGVPDRFSGSGSTTDFTLTISSFQPEDAAVYYCQQGWSFPYTFGSGTRLEIK
notes: as for B4
Regarding B9, in assay [2], the koff turned out to be 0.00033 s⁻¹.

B10: 48B8 VL shuffled Fab (Fab, V domains shown)
VH: EVQLVQPGVELRNPGASVKVSCKASGYIFTMNSIDWVRQAPGQGLEWMGRIDPEDGGTKYAQKFQGRVTFTADTSTSTAYVELNSLRSEDTAVYYCARVDDYYLGYDYWGQGTQVTVSS
VL: DVVMTQSPSSVTASVGEKVTINCKSSQSVLYTSNHKNYLAWYQQRLGQSPRLLIYWASTRESGVPDRFSGSGSTTDFTLTISSFQPEDAAVYYCQQGWSFPYSFGSGTRLEIK
notes: as for B4
Turning to B10, the koff in assay [2] was found to be 0.00033 s⁻¹.

B11: 48B6 VL shuffled Fab (Fab, V domains shown)
VH: EVQLVQPGVELRNPGASVKVSCKASGYIFTMNSIDWVRQAPGQGLEWMGRIDPEDGGTKYAQKFQGRVTFTADTSTSTAYVELNSLRSEDTAVYYCARVDDYYLGYDYWGQGTQVTVSS
VL: DIQLTQSPSSVTASAGEKVTINCKSSQSVLYGSNQKNYLAWYQQRLGQSPRLLIYWASTRESGVPDRFSGSGSTTDFTLTISSFQPEDAAVYYCQQGWSFPYTFGSGTRLEIK
notes: as for B4
B11: the koff in assay [2] amounted to 0.00012 s⁻¹.

B12: 36C4Q Fab (Fab, V domains shown)
VH: QVQLVESGPGLVKPSQTLSLTCAVSGGSITTNYYYWSWIRQSPGKGLEWMGVIAYDGSTDYSPSLKSRTSISRDTSKNQFSLQLSSVTPEDTAVYYCARDVRVIATGWATANALDAWGQGTQVTVSS
VL: QSVLTQPPSVSGSPGKTVTISCAGTSSDVGYGNYVSWYQQLPGTAPKLLIFAVSYRASGIPDRFSGSKSGNTAFLTISGLQSEDEADYYCASYRSSNNAAVFGGGTHLTVL
For the molecule B12, the koff in assay [2] turned out to be 0.00017 s⁻¹.

B13: 49D2 VL shuffled Fab (Fab, V domains shown)
VH: QVQLVESGPGLVKPSQTLSLTCAVSGGSITTNYYYWSWIRQSPGKGLEWMGVIAYDGSTDYSPSLKSRTSISRDTSKNQFSLQLSSVTPEDTAVYYCARDVRVIATGWATANALDAWGQGTQVTVSS
VL: QSVLTQPPSVSGTLGKTLTISCAGTSTDVGYGNYVSWYQQLPGTAPKLLIFAVSYRASGIPDRFSGSKSGNTAFLTISGLQSEDEADYYCASYRSSNNAAVFGGGTHLTVL
notes: VL-shuffled Fab with the 36C4Q heavy chain, periplasmic extract
On to B13, for which the koff in assay [2] was 0.00017 s⁻¹.

B14: 49A1 VL shuffled Fab (Fab, V domains shown)
VH: QVQLVESGPGLVKPSQTLSLTCAVSGGSITTNYYYWSWIRQSPGKGLEWMGVIAYDGSTDYSPSLKSRTSISRDTSKNQFSLQLSSVTPEDTAVYYCARDVRVIATGWATANALDAWGQGTQVTVSS
VL: QSVLTQPPSVSGSPGKTVTISCAGTSSDVGYGNYVSWYQQLPGTAPKLLIFAVSYRASGIPDRFSGSKSGNTAFLTISGLQSEDEADYYCASYRSSNNAAVFGGGTHLTVL
notes: as for B13
For B14, the koff in assay [2] turned out to be 0.00017 s⁻¹.

B15: 49A11 VL shuffled Fab (Fab, V domains shown)
VH: QVQLVESGPGLVKPSQTLSLTCAVSGGSITTNYYYWSWIRQSPGKGLEWMGVIAYDGSTDYSPSLKSRTSISRDTSKNQFSLQLSSVTPEDTAVYYCARDVRVIATGWATANALDAWGQGTQVTVSS
VL: QSALTQPPSVSGSPGKTVTISCAGTSSDVGYGNYVSWYQKLPGTAPKLLIYAVSYRASGIPDRFSGSRSGNTASLTISGLQSEDEADYYCASYRITNRHSVFGGGTHLTVL
notes: as for B13
On to B15, for which the koff in assay [2] came to 0.00048 s⁻¹.

B16: 49E11 VL shuffled Fab (Fab, V domains shown)
VH: QVQLVESGPGLVKPSQTLSLTCAVSGGSITTNYYYWSWIRQSPGKGLEWMGVIAYDGSTDYSPSLKSRTSISRDTSKNQFSLQLSSVTPEDTAVYYCARDVRVIATGWATANALDAWGQGTQVTVSS
VL: QAVLTQPPSVSGTLGKTVTISCAGTSSDVGYGNYVSWYQKLPGTAPKLLIYAVSYRASGIPDRFSGSKSGNTASLTISGLQSEDEADYHCASYRTSNNVAVFGGGTKLTVL
notes: as for B13
On to B16, for which the koff in assay [2] came out at 0.00063 s⁻¹.

B17: 49G3 VL shuffled Fab (Fab, V domains shown)
VH: QVQLVESGPGLVKPSQTLSLTCAVSGGSITTNYYYWSWIRQSPGKGLEWMGVIAYDGSTDYSPSLKSRTSISRDTSKNQFSLQLSSVTPEDTAVYYCARDVRVIATGWATANALDAWGQGTQVTVSS
VL: QSALTQPPSVSGTLGKTLTISCAGTSTDVGYGNYVSWYQQLPGTAPKLLIFAVSYRASGIPDRFSGSKSGNTAFLTISGLQSEDEADYYCASYRSSNNAAVFGGGTHLTVL
notes: as for B13
For the molecule B17, the koff in assay [2] turned out to be 0.00019 s⁻¹.

B18: 49D3 VL shuffled Fab (Fab, V domains shown)
VH: QVQLVESGPGLVKPSQTLSLTCAVSGGSITTNYYYWSWIRQSPGKGLEWMGVIAYDGSTDYSPSLKSRTSISRDTSKNQFSLQLSSVTPEDTAVYYCARDVRVIATGWATANALDAWGQGTQVTVSS
VL: LPVLTQPPSVSGTLGKTLTISCAGTSSDVGYGNYVSWYQQLPGTAPKLLIYAVSYRASGIPDRFSGSKSGNTASLSISGLQSEDEADYYCASYRSSNKNAVFGGGTHLTVL
notes: as for B13
Take B18: the koff in assay [2] came out at 0.00082 s⁻¹.

B19: 49C4 VL shuffled Fab (Fab, V domains shown)
VH: QVQLVESGPGLVKPSQTLSLTCAVSGGSITTNYYYWSWIRQSPGKGLEWMGVIAYDGSTDYSPSLKSRTSISRDTSKNQFSLQLSSVTPEDTAVYYCARDVRVIATGWATANALDAWGQGTQVTVSS
VL: QSALTQPPSVSGTLGKTVTISCAGTSSDVGYGNYVSWYQKLPGTAPKLLIYAVTYRASGIPDRFSGSKSGNTASLTISGLQSEDEADYYCASYRRSTNVGVFGGGTHLTVL
notes: as for B13
B19: the off-rate (koff) in assay [2] turned out to be 0.00018 s⁻¹.

Broadly, the koff is a measure of how fast the partners let go of each other.
